US20070003547A1 (published 2007)

B1: (Fab)'2 fragment of mouse BCF2 IgG (other)
chain 1: DIVLTQSPVSLAVSVGQRATISCKASQSVDFDGESYMNWYQQKPGQPPKLLIYVVSNLESGIPARFSGSGSGTDFTLNIHPVEEEDAATYYCQQSNEDPLTFGAGTNLELKR
chain 2: EVQLQQSGPELVKPGASMKISCKVSGYSFTDHTMNWVKQSHGKNLELIGLINPFNGDATYKQKFTGKATLTVDRSSSTAFMELLSLTSEDSAVYYCARYGNYAMDYWGQGTSVTVSS
B2: humanized D1.3 Fab (Fab, V domains shown)
VH: QVQLQESGPGLVKPSETLSLTCTVSGGSVSGYGVNWIRQPPGKGLEWIGMIWGDGNTDYNSSLKSRVTISVDTSKNQFSLKLSSVTAADTAVYYCARERDYRLDYWGQGTLVTVSS
VL: AIRMTQSPFSLSASVGDRVTITCRASGNIHNYLAWYQQKPAKAPKLFIYYTTTLADGVPSRFSGSGSGTDYTLTISSLQPEDFATYYCQHFWSTPRTFGGGTKVEIKR
B3: humanized BCF2 Fab fragment (Fab, V domains shown)
VH: EVQLVQSGAEVKKPGATVKISCKVSGYTFTDHTMNWVQQAPGKGLEWMGLINPFNGDATYKQKFQGRVTITADTSTDTAYMELSSLRSEDTAVYYCARYGNYAMDYWGQGTTVTVSS
VL: DIVMTQTPLSLSVTPGQPASISCKASQSVDFDGESYMNWYLQKPGQPPQLLIYVVSNLESGVPDRFSGSGSGTDFTLKISRVEAEDVGVYYCQQSNEDPLTFGGGYKVEIKR
B4: Fab fragment comprised of mouse 9.3 variable domains and human constant domains (Fab, V domains shown)
VH: EVKLQQSGPGLVTPSQSLSITCTVSGFSLSDYGVHWVRQSPGQGLEWLGVIWAGGGTNYNSALMSRKSISKDNSKSQVFLKMNSLQADDTAVYYCARDKGYSYYYSMDYWGQGTSVTVSS
VL: DIELTQSPASLAVSLGQRATISCRASESVEYYVTSLMQWYQQKPGQPPKLLIFAASNVESGVPARFSGSGSGTNFSLNIHPVDEDDVAMYFCQQSRKVPYTFGGGTKLEIKR

What was measured:
scorpion toxin = scorpion toxin (Centruroides noxius, UniProt P01495 17-82); assay: BIAcore SPR, toxin immobilized, antibody in solution, from kinetic rate constants
chicken lysozyme = molecular target: T1, chicken lysozyme (chicken, UniProt P00698 19-147); assay: fluorescence quench titration (FIG. 7 legend)
T1 construct: The assay paragraph says only 'lysozyme'; also called chicken lysozyme antigen

CD28Ig = CD28Ig (human, UniProt P10747 19-152); assay: ELISA, CD28Ig coated plates, anti-human k conjugate

Row | Binder | Kd (scorpion toxin) [nM] | also measured
1 | B1 | 10 | 
2 | B2 |  | Ka (chicken lysozyme): > 1e+08 M⁻¹
3 | B3 | 140 | 
4 | B4 |  | EC50 (CD28Ig): 20 nM
